Assay results taken from the supplement of paper PMC7125110.
± gives the standard error. For part of these data: This sample holds only a part of the variants without activity.

B1: glmS ribozyme (parent)
chain: AUAAAAGCGCCAGAACUACAGAAAUGUAGUUGACGAGGAGGAGGUUUAUCGAAUUUUCGGCGGAUGCCUCCAAA

Columns and labels:
Conditions in all cases: with glucosamine-6-phosphate
glucosamine-6-phosphate [1] = variants of: B1; experiment: kcat; higher = faster cleavage; RNA array
In short: (§1)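 Tiles of sequenced MiSeq chips were imaged over ~14 h at 37 °C. On them, barcoded ribozyme variants had been transcribed in situ by E. coli RNA polymerase and were tracked via a hybridised Cy3 probe while glucosamine-6-phosphate (40 μM to 10 mM) in HEPES/KCl/Mg(OAc)2 buffer flowed in. Per-tile medians, normalised to baseline and to non-cleaving reference variants, were fit to one- or two-exponential decays for kobs, and weighted Michaelis–Menten fits gave kcat and KM.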

glucosamine-6-phosphate [2] = variants of: B1; experiment: self-cleavage kobs at 40 uM GlcN6P; higher = faster cleavage; RNA array
In short: as §1

glucosamine-6-phosphate [3] = variants of: B1; experiment: self-cleavage kobs at 160 uM GlcN6P; higher = faster cleavage; RNA array
In short: as §1

glucosamine-6-phosphate [4] = variants of: B1; experiment: KM; higher = weaker cofactor use; RNA array
In short: as §1

glucosamine-6-phosphate [5] = variants of: B1; experiment: self-cleavage kobs at 640 uM GlcN6P; higher = faster cleavage; RNA array
In short: as §1

glucosamine-6-phosphate [6] = variants of: B1; experiment: self-cleavage kobs at 2500 uM GlcN6P; higher = faster cleavage; RNA array
In short: as §1

glucosamine-6-phosphate [7] = variants of: B1; experiment: self-cleavage kobs at 10000 uM GlcN6P; higher = faster cleavage; RNA array
In short: as §1

## AUAAAAGCGGCAGAGCUACAGAAAUGUAGUUGACGAGGAGGAGGUUUAUCGAAUUUUCGGCGGAUGCCUCCAAA
glucosamine-6-phosphate [1]
  kcat: 1.16e-05 ± 4e-06 s⁻¹

## AUAAAAGCGCCAGAAGUACAGAAAUGUAGUUGACGAGGAGGAGGUUUAUCGAAUUUUCGGUGGAUGCCUCCAAA
glucosamine-6-phosphate [1]
  kcat: < 1e-05 s⁻¹
glucosamine-6-phosphate [2]
  self-cleavage kobs at 40 uM GlcN6P: < 1e-05 s⁻¹
glucosamine-6-phosphate [3]
  self-cleavage kobs at 160 uM GlcN6P: < 1e-05 s⁻¹

## AUAAAAGCGCCAGGACUACAGAAAUGUAGUUCACGAGGAGGAGGUUUAUCGAAUUUUCGGCGGAUGCCUCCAAA
glucosamine-6-phosphate [1]
  kcat: 0.000222 ± 9e-06 s⁻¹
glucosamine-6-phosphate [4]
  KM: 1900 ± 190 µM
glucosamine-6-phosphate [5]
  self-cleavage kobs at 640 uM GlcN6P: 5.72e-05 ± 1.5e-05 s⁻¹
glucosamine-6-phosphate [6]
  self-cleavage kobs at 2500 uM GlcN6P: 0.000115 ± 4.1e-05 s⁻¹
glucosamine-6-phosphate [7]
  self-cleavage kobs at 10000 uM GlcN6P: 0.000188 ± 2.8e-05 s⁻¹

## AUAAAAGCGCCAGAACUACAGAAAUGUAGUGGACGCGGAGGAGGUUUAUCGAAUUUUCGGCGGAUGCCUGCAAA
glucosamine-6-phosphate [1]
  kcat: 7.04e-05 ± 3.2e-05 s⁻¹
glucosamine-6-phosphate [5]
  self-cleavage kobs at 640 uM GlcN6P: 0.000105 ± 4.3e-05 s⁻¹

## AUAAAAGCGCCAGAACUACAGAAAUGUAGUUGACGAGGAGGAGGUUUAUCGAAUUAUCGGCGGAUGCCUCAAAA
glucosamine-6-phosphate [1]
  kcat: 0.00492 ± 0.0022 s⁻¹
glucosamine-6-phosphate [2]
  self-cleavage kobs at 40 uM GlcN6P: 9.35e-05 ± 1.1e-05 s⁻¹
glucosamine-6-phosphate [3]
  self-cleavage kobs at 160 uM GlcN6P: 0.000174 ± 3.4e-05 s⁻¹
glucosamine-6-phosphate [5]
  self-cleavage kobs at 640 uM GlcN6P: 0.000881 ± 0.0001 s⁻¹
glucosamine-6-phosphate [6]
  self-cleavage kobs at 2500 uM GlcN6P: 0.00216 ± 0.00042 s⁻¹
glucosamine-6-phosphate [7]
  self-cleavage kobs at 10000 uM GlcN6P: 0.00398 ± 0.00071 s⁻¹

## AUAAAAGCGCCAGAAUUACAGAAAUGUAGUUGACGAGGAGGAGGUUUAUCGAAUUUUCGGGGGAUGCCUCCAAA
glucosamine-6-phosphate [1]
  kcat: < 1e-05 s⁻¹

## AUAAAAGCGUCUGAACUACAGAAAUGUAGUUGACGAGGAGGAGGUUUAUUGAAUUUUCGGCGGAUGCCUCCAAA
glucosamine-6-phosphate [1]
  kcat: 2.27e-05 ± 6.7e-06 s⁻¹

## AUAAAAGCGCCAGAACUACAGAAAUGUAGUUGACGAAGAGGAGGUUUAUCGAACUUUCGGCGGAUGCCUCCAAA
glucosamine-6-phosphate [1]
  kcat: 0.00259 ± 0.00054 s⁻¹
glucosamine-6-phosphate [4]
  KM: 3190 ± 910 µM
glucosamine-6-phosphate [2]
  self-cleavage kobs at 40 uM GlcN6P: 4.82e-05 ± 1.6e-05 s⁻¹
glucosamine-6-phosphate [3]
  self-cleavage kobs at 160 uM GlcN6P: 0.000124 ± 2.7e-05 s⁻¹
glucosamine-6-phosphate [5]
  self-cleavage kobs at 640 uM GlcN6P: 0.000375 ± 8.4e-05 s⁻¹
glucosamine-6-phosphate [6]
  self-cleavage kobs at 2500 uM GlcN6P: 0.00127 ± 0.00026 s⁻¹
glucosamine-6-phosphate [7]
  self-cleavage kobs at 10000 uM GlcN6P: 0.00192 ± 0.00042 s⁻¹

## AUAAAAGCGCCAGGACUACAGAAAUGUAGUUGACGAGGAGGAGGUUUAUCGAAUUUUCGCCGGAUGCCUCCAAA
glucosamine-6-phosphate [1]
  kcat: 1.11e-05 ± 3.4e-06 s⁻¹

## AUAAAAGCGCCAGAACUACAGAAAUGUAGUUGACGAGGACGAGGUUUAUCGAAUUUUCGGCGGAUGCCUUCAAA
glucosamine-6-phosphate [1]
  kcat: 0.000498 ± 0.00011 s⁻¹
glucosamine-6-phosphate [4]
  KM: 512 ± 240 µM
glucosamine-6-phosphate [2]
  self-cleavage kobs at 40 uM GlcN6P: 4.61e-05 ± 9e-06 s⁻¹
glucosamine-6-phosphate [3]
  self-cleavage kobs at 160 uM GlcN6P: 0.000155 ± 3.2e-05 s⁻¹
glucosamine-6-phosphate [5]
  self-cleavage kobs at 640 uM GlcN6P: 0.0002 ± 3.4e-05 s⁻¹
glucosamine-6-phosphate [6]
  self-cleavage kobs at 2500 uM GlcN6P: 0.000428 ± 9.7e-05 s⁻¹
glucosamine-6-phosphate [7]
  self-cleavage kobs at 10000 uM GlcN6P: 0.000555 ± 6.8e-05 s⁻¹

## AUAAAAGCGCCAGAACUACAGAAAUGUAGUUGACGAGGAGGAGGGUUAUCGAAUUUUCGGCGGAUGGCUCCAAA
glucosamine-6-phosphate [1]
  kcat: 0.000915 ± 0.00011 s⁻¹
glucosamine-6-phosphate [4]
  KM: 1420 ± 340 µM
glucosamine-6-phosphate [2]
  self-cleavage kobs at 40 uM GlcN6P: 3.25e-05 ± 1.2e-05 s⁻¹
glucosamine-6-phosphate [3]
  self-cleavage kobs at 160 uM GlcN6P: 7.93e-05 ± 2.7e-05 s⁻¹
glucosamine-6-phosphate [5]
  self-cleavage kobs at 640 uM GlcN6P: 0.000303 ± 4.8e-05 s⁻¹
glucosamine-6-phosphate [6]
  self-cleavage kobs at 2500 uM GlcN6P: 0.000477 ± 0.00011 s⁻¹
glucosamine-6-phosphate [7]
  self-cleavage kobs at 10000 uM GlcN6P: 0.000846 ± 0.00011 s⁻¹

## AUAAAAGCGCCAGAACUACAGAAAUGUAGUUGACGAGGAGGGGGUUUAUCGAAUUUCCGGCGGAUGCCUCCAAA
glucosamine-6-phosphate [1]
  kcat: 0.000292 ± 1.6e-05 s⁻¹
glucosamine-6-phosphate [4]
  KM: 2270 ± 300 µM
glucosamine-6-phosphate [5]
  self-cleavage kobs at 640 uM GlcN6P: 6.98e-05 ± 2e-05 s⁻¹
glucosamine-6-phosphate [6]
  self-cleavage kobs at 2500 uM GlcN6P: 0.000145 ± 2.7e-05 s⁻¹
glucosamine-6-phosphate [7]
  self-cleavage kobs at 10000 uM GlcN6P: 0.000242 ± 3.4e-05 s⁻¹

## AUAAAAGCGCCAGAACUACAGAAAUGUAGUUGACGAGGAGGAGGUUUAUCGAAUUCUAGGCGGAUGCCUCCAAA
glucosamine-6-phosphate [1]
  kcat: 0.000232 ± 6.7e-05 s⁻¹
glucosamine-6-phosphate [5]
  self-cleavage kobs at 640 uM GlcN6P: 3.8e-05 ± 1.6e-05 s⁻¹
glucosamine-6-phosphate [6]
  self-cleavage kobs at 2500 uM GlcN6P: 5.91e-05 ± 1.6e-05 s⁻¹
glucosamine-6-phosphate [7]
  self-cleavage kobs at 10000 uM GlcN6P: 0.000146 ± 1.9e-05 s⁻¹

## AUAAAAGCGCCCGAACUACAGAAAUGUAGUUGACGAGGCGGAGGUUUAUCGAAUUUUCGGCGGAUGCCUCCAAA
glucosamine-6-phosphate [1]
  kcat: 0.000611 ± 4.3e-05 s⁻¹
glucosamine-6-phosphate [4]
  KM: 2060 ± 260 µM
glucosamine-6-phosphate [2]
  self-cleavage kobs at 40 uM GlcN6P: 1.91e-05 ± 9.4e-06 s⁻¹
glucosamine-6-phosphate [3]
  self-cleavage kobs at 160 uM GlcN6P: 3.75e-05 ± 7.9e-06 s⁻¹
glucosamine-6-phosphate [5]
  self-cleavage kobs at 640 uM GlcN6P: 0.000149 ± 1.2e-05 s⁻¹
glucosamine-6-phosphate [6]
  self-cleavage kobs at 2500 uM GlcN6P: 0.000343 ± 3e-05 s⁻¹
glucosamine-6-phosphate [7]
  self-cleavage kobs at 10000 uM GlcN6P: 0.000499 ± 4.2e-05 s⁻¹

## AUAAAAGCGCCAGAACUACAGAAAUGUAGUUGACGAGGAGGAGGCUUAUCGAAUUUUCGGCGGAUGGCUCCAAA
glucosamine-6-phosphate [1]
  kcat: 0.0224 ± 0.0058 s⁻¹
glucosamine-6-phosphate [4]
  KM: 5680 ± 1800 µM
glucosamine-6-phosphate [2]
  self-cleavage kobs at 40 uM GlcN6P: 0.000175 ± 3.4e-05 s⁻¹
glucosamine-6-phosphate [3]
  self-cleavage kobs at 160 uM GlcN6P: 0.000503 ± 0.00012 s⁻¹
glucosamine-6-phosphate [5]
  self-cleavage kobs at 640 uM GlcN6P: 0.00339 ± 0.0011 s⁻¹
glucosamine-6-phosphate [6]
  self-cleavage kobs at 2500 uM GlcN6P: 0.00755 ± 0.0031 s⁻¹
glucosamine-6-phosphate [7]
  self-cleavage kobs at 10000 uM GlcN6P: 0.0141 ± 0.0026 s⁻¹

## AUAAAAGCGCCAGAAAUACAGAAAUGUAGUUGACGAGGAGGAGGUUUAUCGAAUUUUCGGCGGAUGGCUCCAAA
glucosamine-6-phosphate [1]
  kcat: 4.14e-05 ± 5.2e-06 s⁻¹
glucosamine-6-phosphate [5]
  self-cleavage kobs at 640 uM GlcN6P: 3.73e-05 ± 1.5e-05 s⁻¹
glucosamine-6-phosphate [6]
  self-cleavage kobs at 2500 uM GlcN6P: 2.82e-05 ± 1.1e-05 s⁻¹
glucosamine-6-phosphate [7]
  self-cleavage kobs at 10000 uM GlcN6P: 4.37e-05 ± 8e-06 s⁻¹

## AUAAAAGCGCCAGAACUACAGAAAUGUAGUUGACGAGGAGGAGGUUCAUCGAACUUUCGGCGGAUGCCUCCAAA
glucosamine-6-phosphate [1]
  kcat: 0.00359 ± 0.00063 s⁻¹
glucosamine-6-phosphate [4]
  KM: 1240 ± 310 µM
glucosamine-6-phosphate [2]
  self-cleavage kobs at 40 uM GlcN6P: 9.72e-05 ± 1.5e-05 s⁻¹
glucosamine-6-phosphate [3]
  self-cleavage kobs at 160 uM GlcN6P: 0.000434 ± 7.2e-05 s⁻¹
glucosamine-6-phosphate [5]
  self-cleavage kobs at 640 uM GlcN6P: 0.00141 ± 0.00017 s⁻¹
glucosamine-6-phosphate [6]
  self-cleavage kobs at 2500 uM GlcN6P: 0.00299 ± 0.00053 s⁻¹
glucosamine-6-phosphate [7]
  self-cleavage kobs at 10000 uM GlcN6P: 0.00275 ± 0.00046 s⁻¹

## AUAAAAGCGCCAGAACUACAGAAAUGUAGUUGACGAGGAGGAUGUUUAUCGAAUUUUCGGCGGAUGUUUCCAAA
glucosamine-6-phosphate [1]
  kcat: 4.99e-05 ± 2e-05 s⁻¹
glucosamine-6-phosphate [6]
  self-cleavage kobs at 2500 uM GlcN6P: 7.28e-05 ± 2.2e-05 s⁻¹
glucosamine-6-phosphate [7]
  self-cleavage kobs at 10000 uM GlcN6P: 3.53e-05 ± 1.7e-05 s⁻¹
